The target in the series is mature TGF-β1, P04202.

Here are results for one protein from US20260000742.

mature TGF-β1, P04202, sequence (P04202 279-390): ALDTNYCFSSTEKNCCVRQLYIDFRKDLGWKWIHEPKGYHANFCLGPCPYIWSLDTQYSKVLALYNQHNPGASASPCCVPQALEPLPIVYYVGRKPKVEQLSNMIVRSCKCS

B1: Htra3 tagged with FLAG at the C-terminus (Htra3-flag protein) (protein)
chain: REPPAAPCPARCDVSRCPSPRCPGGYVPDLCNCCLVCAASEGEPCGRPLDSPCGDSLECVRGVCRCRWTHTVCGTDGHTYADVCALQAASRRALQVSGTPVRQLQKGACPSGLHQLTSPRYKFNFIADVVEKIAPAVVHIELFLRHPLFGRNVPLSSGSGFIMSEAGLIVTNAHVVSSSSTASGRQQLKVQLQNGDAYEATIQDIDKKSDIATIVIHPKKKLPVLLLGHSADLRPGEFVVAIGSPFALQNTVTTGIVSTAQRDGKELGLRDSDMDYIQTDAIINYGNSGGPLVNLDGEVIGINTLKVAAGISFAIPSDRITRFLSEFQNKHVKDWKKRFIGIRMRTITPSLVEELKAANPDFPAVSSGIYVQEVVPNSPSQRGGIQDGDIIVKVNGRPLADSSELQEAVLNESSLLLEVRRGNDDLLFSIIPEVVM
In the case of B1, the “protein levels of TGF-β1 and phosphorylated Smad2/3 in primary cardiac fibroblasts (western blot)” value is “overexpression of Htra3 reduced the protein levels of both TGF-β1 and phosphorylated Smad2/3 (phospho-Smad2/3), a marker of activated TGF-β signaling”.
